Data published in PMC6754456, “A processive endoglucanase with multi-substrate specificity is characterized from porcine gut microbiota” (Scientific Reports, 2019).

Tested on: O=[N+]([O-])c1ccc(O[C@@H]2O[C@H](CO)[C@@H](O[C@@H]3O[C@H](CO)[C@@H](O)[C@H](O)[C@H]3O)[C@H](O)[C@H]2O)cc1
Experiment: purified protein
Conditions: 100 mM MES pH 6.0, 50 °C, 10 min

Work on p4818Cel5_2A (uncultured bacterium) yielded a Km of 1200 ± 100 µM, a kcat of 1.63 ± 0.0583 s⁻¹ and a kcat/Km of 1350 M⁻¹ s⁻¹.
